In patent US6476190:

Legend:
[1] = tested on: 2-aminobenzoyl-Thr-Ile-Nle-Phe(p-NO2)-Gln-Arg-NH2 (SEQ. ID NO. 4)
[2] = tested on: Ac-Thr-Ile-Nle-Nle-Gln-Arg-NH2 (SEQ ID NO 1)

| Substance | fluorogenic assay (fluorescence against time of incubation) [1] | cleavage of the peptide substrate (reverse phase HPLC; products identified by ion spray mass spectrometry) [2] |
| --- | --- | --- |
| [(NHCH2COSCH2CO)^51-52 Aba^67,95] HIV-1 PR | showed identical activities | The peptide products were identified by ion spray mass spectrometry as (H)-Nle-Gln-Arg. NH2 (early eluting) and Ac-Thr-Ile-Nle-(OH) (late eluting) |
| {Aba^67,95,167,195} HIV-1 PR | showed identical activities |  |
